# Measured values published in a protein production outcome set (Wang et al. 2014).
# Experiment: label from the status in PepcDB records
row,Sequence,protein production
1,MAAQVEIEDQESVTNLDNGEIINPISDNAPNFSGDATILLREATFEHNLIKNCFLSGMGSFATETTIVTVRKILTQRLITTKAKFAVFKLFTEAMKRKNNGYANIRYGWYSGSKEEIDRVITYGFSNREIKKVENDVGSHGVGIHLVHHRYSLAAALVGEGDEEGIKNILLCRVILGKPEQIVTGSKQSYPSSNQFDSGVDNLENPRKYVIWSCNMNSYILPTYIVSFKSHLLRGLIGRARSPCVSFSVLMSILSKSLDAARMNLILTSYDDFRKRKLRREQLVRKIREVVGDNLLFKILKNQRR,not failed
2,MAARNAFYAQSGGVTAVINASACGVLETARQYPDRIGTVYAGRNGIVGALTEDLIDTGQESAEAIAALRHTPSGAFGSCRYKLKGLEENRAQYERLIEVFRAHDIGYFFYNGGGDSADTCLKVSQLSEKLGYPLQAVHIPKTVDNDLPITDCCPGFGSVAKYIAVSVREASFDVRSMAATSTCIFVLEVMGRHAGWIAAAGGLASDERHELALVILFPEQVFDPERFLRAVDEKVRSHGYCSVVVSEGIRGADGRFVAESGSRDVFGHARLGGVAPVIADLIKERLGYKYHWAVADYLQRAARHIASRTDVEQAYAVGKAGVEMALKGLSAVMPAIVRTSDSPYRWEITAASLAEVANVEKKMPLEFISADGFGITEACRRYLRPLIEGEDYPPYAGGLPDYVTLCNVAVPKKLAASFSV,failed
3,MAASAAATAAASAATAASAASGSPGSGEGSAGGEKRPAASSAAAASAAASSPAGGGGEAQELLEHCGVCRERLRPERDPRLLPCLHSACSACLGPATPAAANNSGDGGSAGDGAMVDCPVCKQQCYSKDIVENYFMRDSGSKASSDSQDANQCCTSCEDNAPATSYCVECSEPLCETCVEAHQRVKYTKDHTVRSTGPAKTRDGERTVYCNVHKHEPLVLFCESCDTLTCRDCQLNAHKDHQYQFLEDAVRNQRKLLASLVKRLGDKHATLQKNTKEVRSSIRQVSDVQKRVQVDVKMAILQIMKELNKRGRVLVNDAQKVTEGQQERLERQHWTMTKIQKHQEHILRFASWALESDNNTALLLSKKLIYFQLHRALKMIVDPVEPHGEMKFQWDLNAWTKSAEAFGKIVAERPGTNSTGPGPMAPPRAPGPLSKQGSGSSQPMEVQEGYGFGSDDPYSSAEPHVSGMKRSRSGEGEVSGLLRKVPRVSLERLDLDLTSDSQPPVFKVFPGSTTEDYNLIVIERGAAAAAAGQAGTVPPGAPGAPPLPGMAIVKEEETEAAIGAPPAAPEGPETKPVLMPLTEGPGAEGPRLASPSGSTSSGLEVVAPEVTSAPVSGPGILDDSATICRVCQKPGDLVMCNQCEFCFHLDCHLPALQDVPGEEWSCSLCHVLPDLKEEDGSLSLDGADSTGVVAKLSPANQRKCERVLLALFCHEPCRPLHQLATDSTFSMEQPGGTLDLTLIRARLQEKLSPPYSSPQEFAQDVGRMFKQFNKLTEDKADVQSIIGLQRFFETRMNDAFGDTKFSAVLVEPPPLNLPSAGLSSQELSGPGDGP,not failed
4,MAASLSEGVPETEDRKRPQFGNRFLSDPARVFHHNAWDNVKWSEEQAAAAERKVQENSSQLVCPEKQADYEVNAHKYWDDFYKVHENGFFKDRHWLFTEFPELAPSHDHLVNLHLEKQKNEVSKPRSSEDGPGLAAEQHKRPCTSHGCETRVPPVEEPVTQKLTHLEICADDFPGSSATYRILEVGCGVGNTVFPILQTNNNPDLFVYCCDFSATAIELVKTNSEYDPSRCFAFVHDLCDEDQSYPMPKDSLDVIVLIFVLSAIVPDKMQKAISKLSRLLKPGGVMLLRDYGRYDMAQLRFKKGQCLSGNFYVRGDGTRVYFFTQDELDTLFTAAGLEKVQNVVDRRLQVNRGKQLTMYRVWIQCKYSKPLVPSASQHVPTPHTTXVLRIWGFC,failed
5,MAATAREDGASGQERGQRGCEHYDRGCLLKAPCCDKLYTCRLCHDNNEDHQLDRFKVKEVQCINCEKIQHAQQTCEECSTLFGEYYCDICHLFDKDKKQYHCENCGICRIGPKEDFFHCLKCNLCLAMNLQGRHKCIENVSRQNCPICLEDIHTSRVVAHVLPCGHLLHRTCYEEMLKEGYRCPLCMHSALDMTRYWRQLDDEVAQTPMPSEYQNMTVDILCNDCNGRSTVQFHILGMKCKICESYNTAQAGGRRISLDQQ,failed
6,MAATASPQPLATEDADAENSSFYYYDYLDEVAFMLCRKDAVVSFGKVFLPVFYSLIFVLGLSGNLLLLMVLLRYVPRRRMVEIYLLNLAISNLLFLVTLPFWGISVAWHWVFGSFLCKMVSTLYTINFYSGIFFISCMSLDKYLEIVHAQPYHRLRTRAKNLLLATIVWAVSLAVSIPDMVFVQTHENPKGVWNYHADFGGHGTIWKLFLRFQQNLLGFLLPLLGMIFFYSRIGCVLVRLRPAGQGRALKIAAALVVAFFVLWFPYNLTLFLHTLLDLQVFGNCEVSQHLDYALQVTESIAFLHCCFSPILYAFSSHRFRQYLKAFLAAVLGWHLAPGTAQASLSSCSESSILTALEEMTGMNDLGERQSENYPNKEDVGNKSA,failed
7,MAAVRKIHVTVKFPSKQFTVEVDRTETVSSLKDKIHIVENTPIKRMQLYYSGIELADDYRNLNEYGITEFSEIVVFLKSINRAKD,not failed
8,MAAWVCILGQMKPDPETKPDPMRQTAQPAPQRLLRHLPLIVIVLIAVIGAITLRDYLSFDTLAANRQALLAYREAHYAALAAIFVATYVLIVAFSLPGAAVASMTGGFLFGLAVGTVLNVVAATIGAVAIFLAARAGLGAMLTARLEASEGTVKRLKEGLRRNEIEVLFLLRLVPAVPFFAANLIPALVGVKLRNYVLTTALGIVPGAIVFTWIGVGLGGVFDRGESPDLSLFREPFVIGPILGLCLLAALPIAIKALRGKPEGE,failed
9,MACHELSALRIAIGELLEKEAHDLLHEREELAPVLGQRPELKRLAEAKTLPALEEALREALLHLEERAAQEPEEPYWRGLLLAVEAMEGRLKALRAEAEALYQDLDALHGRLHRLFPRRR,not failed
10,MADHNNTPPFDLTKLDHYIKYQPREEAEDFFVHVEVKVLGKGSSPLEISFSTSVYEFVWEDEDCYELVELYEFFTEDAGIDAFEAQFLVNDLILYVNKTTRPLDEDFTGVFKLMAEVTLKPVQLNHAGSQKTESQQP,failed
11,MADIIGLLLPFFGLIFIGYGAARITKQPVEAMGWLNTFIIYAALPALFFKLVSKTPVEELARMDFVAASLACTYGIFLAVFLIGRFVRRNSLAETTIQSFAASYGNIGYMGPGLALLALGEKAAVPVALIVCLENAAHFIVAPAMMAVAGGDKRSAGKLALDVARKVITHPFIVSVIAGFLAASLSWQPPEAVQRLVDYLAQSAAPCALFAMGVTLALRPMKRVPVEISYIVPAKLILHPLAAYLVLSSLGRFEPVWIYSAVLLAALPTATNVFVIGQQYHVWQERASATILISTVLSVFTLTGVVYFIQPF,failed
12,MADIPKSPTEPNKPVDTKLQVDPNTPVDPKPPVVEPKPPVVDPKPPVVDPKPPEPTHPTITVSPKTGDILVEWYAGNGKYYSSVFFNDFYTSQKELDENALNNLTNYYSKKEDWTLVSQLNTPSKSKSVAEHKLALDNVEQILTSGEYSNERALFYLRNQMNVLNESVTTQEELQRYLSENKKDYIKSVAEKVYQTATEEKREWSNTGDVASLEQALSKFYLVTSVFESVDPALV,failed
13,MADKEKKKKESILDLSKYIDKTIRVKFQGGREASGILKGFDPLLNLVLDGTIEYMRDPDDQYKLTEDTRQLGLVVCRGTSVVLICPQDGMEAIPNPFIQQQDA,failed
14,MADKQPAVNRVVAALLVGGALIAAGYAIRHTVSCFLLSFVTAYLLDPVLVVMERRGVRRPWGILFLYALLAVFSVFFFIVLVPFLSLRWEAFITGLPAYLQKGKQIVFAWKSRAVPPYAVEEWRWLFDTAAGQADKLLAKLGAGVYAAAEGLVFNLFNLVLAPILVFFMLWYKKEFMETAAAWLPASRREVLLALGREVNESIGGYIRGQFMVSVIVAVLSTVALFVIGIDYPIVNGIFAGLASVLPFIGVILATLPPLFFAYVQYESGMVLLQVIGAFSVIYFLEGYLVKPLVFKESMDLNPLVTIIVVMVFGELMGFWGILLAIPIAAAVRAAADHLRRGDFRS,failed
15,MADLTHEFWDRLEDVRSGMLGIKGQGRLIPMSPQTDDDAPGAIWFITAKGTDLAKGVAAGPQPAQFVVSDDGEGLYADLDGTLERSTDREALDEFWSFVADAWFDGGQHDPDVCLLKFTPASGEISITEGGGARFLYEIAKAHLTDETPDMGEQATVTF,not failed
16,MADNINESEIIERLNSAPSVRGFFIATVDVFNESIDGLIQRIFRKDNFAVQSVVGPLLQDSGPLGDLSVRLKLLFGLGVLPDDIYHDIEDIIKLKNHLNSDASDYEFTDPNILEPIKKLHLVKKMGMVQLEVNEPDDDIDLEFYQLQLQRQQQIIKSGLSLAIVEICNELGK,not failed
17,MADNKVNLSINGQSKVPPGFRFHPTEEELLHYYLRKKVNSQKIDLDVIREVDLNKLEPWDIQEECRIGSTPQNDWYFFSHKDKKYPTGTRTNRATVAGFWKATGRDKIICSCVRRIGLRKTLVFYKGRAPHGQKSDWIMHEYRLDDTPMSNGYADVVTEDPMSYNEEGWVVCRVFRKKNYQKIDDCPKITLSSLPDDTEEEKGPTFHNTQNVTGLDHVLLYMDRTGSNICMPESQTTTQHQDDVLFMQLPSLETPKSESPVDQSFLTPSKLDFSPVQEKITERPVCSNWASLDRLVAWQLNNGHHNPCHRKSFDEEEENGDTMMQRWDLHWNNDDNVDLWSSFTESSSSLDPLLHLSV,failed
18,MADNTNVTRRSFLTATGAAAGSVALVGVSAGESDDPWNSDRSEYIVGVSNVEDDPQQHVEQYLQGQEQVGSVQERLNTAVVGLPADAPESVRKQFVDRLESRDTIKYVEQNVELQAQLVPNDPRFGDQYADQQVNAPEAWDTTTGDAGVTIGVVDQGVKYDHPDLDGNIDRSVSNGGRDFVDDDGDPYPDSLNEEIHGTHVAGIAAAEVNNGNGVTGIGNSSVIAGRALSERGSGSTADIADAITWAANEGADVINLSLGGGGYTNTMQNAVTYAANQGALVVAAAGNDGSGSVSYPAAYGGVLAVSALDPDESLASYSNYGPKIDLAAPGTNVLSTWTADDYESISGTSMATPVVAGVAGLTLAQWELSNAELRNHLKATAVDIGLSDRQQGAGRVDAANAVNTDPGSGGGGGGGGGGDSTSSSVSGSLRGRGDSNCWSFSYEYSNPSQVVIELDGPGNADFDLYANTSTNACPTTSSYEFRSWTTGSQESITIDNPDTSVDLNVLAYAYSGRGDLTVTVTEYK,failed
19,MADPRTDNRNRKIPDAQVDAIKVPPHSLEAEQSVIGGLLLDNERWDTVSEHVMTQDFYSRPHRLIFDGVKSILEAGKPLDLITLSEYLEQREQLEDVGGFAYLADLAKNTPSAANINAYAEIVAERALVRNLIGVANEIADAGYDPQGRNAEDLLDLAESKVFAIAEARTSENEGPKNVDSILERTLERIELLYKTPQDGVTGVNTGFTDLNKKTAGLQGSDLIIVAARPSMGKTTFAMNLCENAAMEQDKPVLIFSLEMPAEQIMMRMLASLSRVDQTKIRTGQLDDEDWARISSTMGILMEKKNMYIDDSSGLTPTEVRSRARRIAREHGGLSLIMVDYLQLMRVPALTDNRTLEIAEISRSLKALAKELNVPVVALSQLNRSLEQRADKRPVNSDLRESGSIEQDADLIMFIYRDEVYHPDSPLKGTAEIIIGKQRNGPIGSVRLTFQGHYSRFDNYAGPAFDDE,not failed
